Source: US20110118447A1
Substitutions are numbered along the chain they refer to. Numbers in names are those of the source. One block for each binder: values may come before it.

Columns and labels:
[1] = biological target: binding partner of C5A (XPA23); test: Biacore
[2] = biological target: binding partner of C5A (XPA23); test: Biacore K-off

B1: C5A (XPA23) VH S30R (antibody, V domains shown)
VH: EVQLLESGGGLVQPGGSLRLSCAASGFTFRKYFMFWVRQAPGKGLEWVSVISPSGGMTRYADSVKGRFTISRDNSKNTLYLQMNSLRAEDTAVYYCARVGYGGNSDYWGQGTLVTVSS
VL: DIQMTQSPSSVSASVGDRLTIICRASQDINRWLAWYQQTPGNAPKLLIHSATSLQSGVPSRFSGSGSGTDFTLTINSLQPEDFATYYCQQADSFPLTFGGGTKVEIK
fold affinity vs original [1]: 0.1 fold | fold difference in affinity vs original [2]: 0.1 fold

B2: C5A (XPA23) VL D92G (antibody, V domains shown)
VH: B1 VH with R30S
VL: B1 VL with D92G
fold difference in affinity vs original [2]: 0.26 fold

B5: C5A (XPA23) VL F94I (antibody, V domains shown)
VH: B1 VH with R30S
VL: B1 VL with F94I
fold difference in affinity vs original [2]: 0.88 fold

B7: C5A (XPA23) VL L96F (antibody, V domains shown)
VH: B1 VH with R30S
VL: B1 VL with L96F
fold difference in affinity vs original [2]: 0.28 fold

B8: C5A (XPA23) VL F94L (antibody, V domains shown)
VH: B1 VH with R30S
VL: B1 VL with F94L
fold difference in affinity vs original [2]: 0.55 fold

B9: C5A (XPA23) VH Y32S (antibody, V domains shown)
VH: B1 VH with R30S, Y32S
VL: B1 VL
fold affinity vs original [1]: 1.33 fold | fold difference in affinity vs original [2]: 1.33 fold

B10: C5A (XPA23) VH K31R (antibody, V domains shown)
VH: B1 VH with R30S, K31R
VL: B1 VL
fold affinity vs original [1]: 0.9 fold | fold difference in affinity vs original [2]: 0.9 fold

B11: C5A (XPA23) VH Y32E (antibody, V domains shown)
VH: B1 VH with R30S, Y32E
VL: B1 VL
fold affinity vs original [1]: 0.12 fold | fold difference in affinity vs original [2]: 0.12 fold

B13: C5A (XPA23) VL D92L (antibody, V domains shown)
VH: B1 VH with R30S
VL: B1 VL with D92L
fold difference in affinity vs original [2]: 0.14 fold

B15: C5A (XPA23) VL L96I (antibody, V domains shown)
VH: B1 VH with R30S
VL: B1 VL with L96I
fold difference in affinity vs original [2]: 0.67 fold

B21: C5A (XPA23) VH K31H (antibody, V domains shown)
VH: B1 VH with R30S, K31H
VL: B1 VL
fold affinity vs original [1]: 1.11 fold | fold difference in affinity vs original [2]: 1.11 fold

B22: C5A (XPA23) VH S30T (antibody, V domains shown)
VH: B1 VH with R30T
VL: B1 VL
fold difference in affinity vs original [1]: 0.06 fold | fold difference in affinity vs original [2]: 0.06 fold

B23: C5A (XPA23) VL D92I (antibody, V domains shown)
VH: B1 VH with R30S
VL: B1 VL with D92I
fold difference in affinity vs original [2]: 0.33 fold

B27: C5A (XPA23) VL F94V (antibody, V domains shown)
VH: B1 VH with R30S
VL: B1 VL with F94V
fold difference in affinity vs original [2]: 0.2 fold

B28: C5A (XPA23) VH K31D (antibody, V domains shown)
VH: B1 VH with R30S, K31D
VL: B1 VL
fold affinity vs original [1]: 0.04 fold | fold difference in affinity vs original [2]: 0.04 fold

B29: C5A (XPA23) VL A91L (antibody, V domains shown)
VH: B1 VH with R30S
VL: B1 VL with A91L
fold difference in affinity vs original [2]: 0.39 fold

B30: C5A (XPA23) VL L96A (antibody, V domains shown)
VH: B1 VH with R30S
VL: B1 VL with L96A
fold difference in affinity vs original [2]: 0.26 fold

B32: C5A (XPA23) VL A91V (antibody, V domains shown)
VH: B1 VH with R30S
VL: B1 VL with A91V
fold difference in affinity vs original [2]: 0.51 fold

B33: C5A (XPA23) VL L96W (antibody, V domains shown)
VH: B1 VH with R30S
VL: B1 VL with L96W
fold difference in affinity vs original [2]: 4.49 fold

B34: C5A (XPA23) VL D92W (antibody, V domains shown)
VH: B1 VH with R30S
VL: B1 VL with D92W
fold difference in affinity vs original [2]: 0.12 fold

B35: C5A (XPA23) VH Y32D (antibody, V domains shown)
VH: B1 VH with R30S, Y32D
VL: B1 VL
fold affinity vs original [1]: 0.68 fold | fold difference in affinity vs original [2]: 0.68 fold

B37: C5A (XPA23) VH Y32H (antibody, V domains shown)
VH: B1 VH with R30S, Y32H
VL: B1 VL
fold affinity vs original [1]: 0.62 fold | fold difference in affinity vs original [2]: 0.62 fold

B38: C5A (XPA23) VL D92F (antibody, V domains shown)
VH: B1 VH with R30S
VL: B1 VL with D92F
fold difference in affinity vs original [2]: 0.26 fold

B41: C5A (XPA23) VH K31Y (antibody, V domains shown)
VH: B1 VH with R30S, K31Y
VL: B1 VL
fold affinity vs original [1]: 0.04 fold | fold difference in affinity vs original [2]: 0.04 fold

B42: C5A (XPA23) VL F94P (antibody, V domains shown)
VH: B1 VH with R30S
VL: B1 VL with F94P
fold difference in affinity vs original [2]: 0.17 fold

B43: C5A (XPA23) VL D92A (antibody, V domains shown)
VH: B1 VH with R30S
VL: B1 VL with D92A
fold difference in affinity vs original [2]: 0.4 fold

B44: C5A (XPA23) VH S30N (antibody, V domains shown)
VH: B1 VH with R30N
VL: B1 VL
fold affinity vs original [1]: 0.15 fold | fold difference in affinity vs original [2]: 0.15 fold

Next, values leading:

fold difference in affinity vs original [2]: 3.83 fold
B3: C5A (XPA23) VL P95A (antibody, V domains shown)
VH: B1 VH with R30S
VL: B1 VL with P95A

fold difference in affinity vs original [2]: 4.92 fold
B4: C5A (XPA23) VL S53P (antibody, V domains shown)
VH: B1 VH with R30S
VL: B1 VL with S53P

fold difference in affinity vs original [2]: 1.35 fold
B6: C5A (XPA23) VL S93I (antibody, V domains shown)
VH: B1 VH with R30S
VL: B1 VL with S93I

fold difference in affinity vs original [2]: 1.32 fold
B12: C5A (XPA23) VL S93F (antibody, V domains shown)
VH: B1 VH with R30S
VL: B1 VL with S93F

fold difference in affinity vs original [2]: 0.75 fold
B14: C5A (XPA23) VL S93G (antibody, V domains shown)
VH: B1 VH with R30S
VL: B1 VL with S93G

fold difference in affinity vs original [2]: 1.07 fold
B16: C5A (XPA23) VL S53A (antibody, V domains shown)
VH: B1 VH with R30S
VL: B1 VL with S53A

fold difference in affinity vs original [2]: 1.16 fold
B17: C5A (XPA23) VL S93A (antibody, V domains shown)
VH: B1 VH with R30S
VL: B1 VL with S93A

fold difference in affinity vs original [2]: 1.03 fold
B18: C5A (XPA23) VL S53G (antibody, V domains shown)
VH: B1 VH with R30S
VL: B1 VL with S53G

fold difference in affinity vs original [2]: 1.42 fold
B19: C5A (XPA23) VL S53V (antibody, V domains shown)
VH: B1 VH with R30S
VL: B1 VL with S53V

fold difference in affinity vs original [2]: 1.42 fold
B20: C5A (XPA23) VL S53I (antibody, V domains shown)
VH: B1 VH with R30S
VL: B1 VL with S53I

fold difference in affinity vs original [2]: 5.49 fold
B24: C5A (XPA23) VL S93W (antibody, V domains shown)
VH: B1 VH with R30S
VL: B1 VL with S93W

fold difference in affinity vs original [2]: 0.98 fold
B25: C5A (XPA23) VL P95F (antibody, V domains shown)
VH: B1 VH with R30S
VL: B1 VL with P95F

fold difference in affinity vs original [2]: 0.99 fold
B26: C5A (XPA23) VL S53L (antibody, V domains shown)
VH: B1 VH with R30S
VL: B1 VL with S53L

fold difference in affinity vs original [2]: 3.81 fold
B31: C5A (XPA23) VL S93V (antibody, V domains shown)
VH: B1 VH with R30S
VL: B1 VL with S93V

fold difference in affinity vs original [2]: 1.24 fold
B36: C5A (XPA23) VL S53F (antibody, V domains shown)
VH: B1 VH with R30S
VL: B1 VL with S53F

fold difference in affinity vs original [2]: 1.08 fold
B39: C5A (XPA23) VL S93L (antibody, V domains shown)
VH: B1 VH with R30S
VL: B1 VL with S93L

fold difference in affinity vs original [2]: 1.11 fold
B40: C5A (XPA23) VL S53W (antibody, V domains shown)
VH: B1 VH with R30S
VL: B1 VL with S53W
